Experimental data published in IntAct's records for PubMed 20562859.

Key:
[1] = target: T1, fnip1_human FNIP1 (UniProt Q8TF40)
T1 sequence: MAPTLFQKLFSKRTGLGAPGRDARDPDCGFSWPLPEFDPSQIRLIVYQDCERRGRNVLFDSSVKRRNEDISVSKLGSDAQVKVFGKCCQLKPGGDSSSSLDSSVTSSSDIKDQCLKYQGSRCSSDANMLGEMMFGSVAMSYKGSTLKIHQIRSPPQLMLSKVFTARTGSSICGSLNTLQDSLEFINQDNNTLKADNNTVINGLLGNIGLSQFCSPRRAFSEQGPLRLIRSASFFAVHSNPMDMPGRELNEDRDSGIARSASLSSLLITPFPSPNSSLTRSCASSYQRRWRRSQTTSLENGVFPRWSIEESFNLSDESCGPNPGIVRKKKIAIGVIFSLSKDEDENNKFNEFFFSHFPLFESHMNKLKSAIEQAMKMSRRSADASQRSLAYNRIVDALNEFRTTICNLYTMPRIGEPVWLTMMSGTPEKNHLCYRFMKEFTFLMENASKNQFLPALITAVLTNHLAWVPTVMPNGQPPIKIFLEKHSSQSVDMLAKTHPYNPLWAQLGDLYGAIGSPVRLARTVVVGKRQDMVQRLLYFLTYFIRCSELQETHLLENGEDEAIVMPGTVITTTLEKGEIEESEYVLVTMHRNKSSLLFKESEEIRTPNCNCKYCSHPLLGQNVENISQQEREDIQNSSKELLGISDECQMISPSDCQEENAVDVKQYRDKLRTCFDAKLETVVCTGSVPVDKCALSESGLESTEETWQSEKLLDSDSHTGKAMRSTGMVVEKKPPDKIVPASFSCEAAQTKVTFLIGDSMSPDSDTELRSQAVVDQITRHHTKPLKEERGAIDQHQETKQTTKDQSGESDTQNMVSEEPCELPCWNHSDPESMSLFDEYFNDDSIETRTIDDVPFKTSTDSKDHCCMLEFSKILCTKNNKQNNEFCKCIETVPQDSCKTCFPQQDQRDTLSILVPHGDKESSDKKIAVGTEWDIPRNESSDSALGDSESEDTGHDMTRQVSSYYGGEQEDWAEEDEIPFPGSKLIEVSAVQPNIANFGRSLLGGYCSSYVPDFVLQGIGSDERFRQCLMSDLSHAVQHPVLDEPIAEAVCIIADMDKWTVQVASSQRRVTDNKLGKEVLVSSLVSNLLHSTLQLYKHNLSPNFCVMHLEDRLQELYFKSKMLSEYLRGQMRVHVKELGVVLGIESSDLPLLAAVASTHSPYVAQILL

[2] = target: kap0_human PRKAR1A (UniProt P10644)
[3] = target: T2, atg13_human ATG13 (UniProt O75143)
T2 sequence: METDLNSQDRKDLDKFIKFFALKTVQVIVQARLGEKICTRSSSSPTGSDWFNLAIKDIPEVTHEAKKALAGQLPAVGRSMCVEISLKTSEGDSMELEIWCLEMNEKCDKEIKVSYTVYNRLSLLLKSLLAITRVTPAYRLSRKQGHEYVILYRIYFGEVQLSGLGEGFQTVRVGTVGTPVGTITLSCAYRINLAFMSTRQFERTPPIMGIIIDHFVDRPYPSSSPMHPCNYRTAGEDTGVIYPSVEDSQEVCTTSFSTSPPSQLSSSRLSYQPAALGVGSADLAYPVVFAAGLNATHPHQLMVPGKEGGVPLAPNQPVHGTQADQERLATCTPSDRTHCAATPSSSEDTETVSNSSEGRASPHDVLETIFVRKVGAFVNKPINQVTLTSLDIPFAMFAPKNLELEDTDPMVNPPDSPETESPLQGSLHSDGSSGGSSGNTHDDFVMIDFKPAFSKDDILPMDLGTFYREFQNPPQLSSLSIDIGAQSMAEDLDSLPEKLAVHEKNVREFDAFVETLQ

[4] = target: uba5_human UBA5 (UniProt Q9GZZ9)
[5] = target: T3, stk4_human STK4 (UniProt Q13043)
T3 sequence: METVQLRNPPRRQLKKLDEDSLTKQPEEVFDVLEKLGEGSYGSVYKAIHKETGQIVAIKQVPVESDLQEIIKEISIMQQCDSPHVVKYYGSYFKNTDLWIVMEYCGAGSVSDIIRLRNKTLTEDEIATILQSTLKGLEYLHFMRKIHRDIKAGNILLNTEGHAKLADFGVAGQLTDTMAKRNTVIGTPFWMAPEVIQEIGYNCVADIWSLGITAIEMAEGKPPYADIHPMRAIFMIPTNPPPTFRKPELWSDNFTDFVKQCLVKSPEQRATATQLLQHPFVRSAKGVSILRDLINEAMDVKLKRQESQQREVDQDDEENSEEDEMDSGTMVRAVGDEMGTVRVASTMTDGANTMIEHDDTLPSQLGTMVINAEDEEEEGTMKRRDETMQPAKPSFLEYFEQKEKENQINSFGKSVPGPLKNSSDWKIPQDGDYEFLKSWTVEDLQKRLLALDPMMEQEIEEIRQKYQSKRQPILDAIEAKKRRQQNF

[6] = target: T4, rasf1_human RASSF1 (UniProt Q9NS23)
T4 sequence: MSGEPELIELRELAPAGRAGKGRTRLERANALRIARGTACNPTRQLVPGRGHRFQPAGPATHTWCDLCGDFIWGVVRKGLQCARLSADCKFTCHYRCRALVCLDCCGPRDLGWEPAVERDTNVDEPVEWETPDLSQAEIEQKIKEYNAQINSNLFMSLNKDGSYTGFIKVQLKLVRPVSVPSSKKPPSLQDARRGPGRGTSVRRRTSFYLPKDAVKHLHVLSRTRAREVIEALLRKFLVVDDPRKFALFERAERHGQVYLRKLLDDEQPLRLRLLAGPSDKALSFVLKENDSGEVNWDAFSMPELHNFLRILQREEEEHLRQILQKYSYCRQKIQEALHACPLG

kap0_human PRKAR1A, sequence (P10644 whole entry): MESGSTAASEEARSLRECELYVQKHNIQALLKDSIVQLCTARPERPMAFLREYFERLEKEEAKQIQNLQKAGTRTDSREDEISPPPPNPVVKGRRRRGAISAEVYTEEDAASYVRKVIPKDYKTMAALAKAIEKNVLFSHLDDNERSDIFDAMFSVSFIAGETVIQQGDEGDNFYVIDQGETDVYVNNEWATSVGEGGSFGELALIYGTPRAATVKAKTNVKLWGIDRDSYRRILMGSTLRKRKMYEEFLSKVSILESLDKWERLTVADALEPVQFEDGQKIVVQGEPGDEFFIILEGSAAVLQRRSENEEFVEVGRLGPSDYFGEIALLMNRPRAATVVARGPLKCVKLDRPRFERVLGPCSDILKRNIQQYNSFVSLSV
uba5_human UBA5, sequence (Q9GZZ9 whole entry): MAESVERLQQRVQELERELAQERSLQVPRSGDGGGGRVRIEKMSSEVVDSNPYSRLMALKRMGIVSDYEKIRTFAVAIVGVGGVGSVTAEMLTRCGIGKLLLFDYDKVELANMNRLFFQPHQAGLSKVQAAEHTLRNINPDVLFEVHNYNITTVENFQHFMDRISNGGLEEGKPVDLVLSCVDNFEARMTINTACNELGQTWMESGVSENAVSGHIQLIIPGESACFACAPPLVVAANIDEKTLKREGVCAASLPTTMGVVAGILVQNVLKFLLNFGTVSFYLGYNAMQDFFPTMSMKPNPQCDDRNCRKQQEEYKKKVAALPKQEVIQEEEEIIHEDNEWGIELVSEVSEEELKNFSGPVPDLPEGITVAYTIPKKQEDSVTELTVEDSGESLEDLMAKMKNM

Substance | effect of a mutation on the interaction [1] | effect of a mutation on the interaction [2] | effect of a mutation on the interaction [3] | effect of a mutation on the interaction [4] | effect of a mutation on the interaction [5] | effect of a mutation on the interaction [6]
Microtubule-associated protein 1 light chain 3 beta (Homo sapiens) (from UniProt Q9GZQ8) F52A;L53A | increasing interaction | – | – | – | – | –
Microtubule-associated protein 1 light chain 3 beta (Homo sapiens) (from UniProt Q9GZQ8) R69A | – | decreasing interaction | decreasing interaction | disrupting interaction | disrupting interaction | decreasing interaction
